This note sets out measurements from publication PMC8932913.

The term Kd denotes the concentration at which binding is half-saturated.

This assay addresses recombinant Hbl B’ of B. cereus strain F837/76 (Bacillus cereus strain F837/76). The assay can be described thus: SPR; Biacore S200; rHbl B’ amine-coupled (350 RU) on a CM5 chip; rHbl L1, L2 or B injected at 7.8125 nM to 2 µM, 30 µl/min, 20°C; running buffer PBS, 1 mM DTT, 0.005% Tween 20; 1:1 binding model; three experiments. In general terms: In SPR one partner is held on a chip, and binding of the other changes the refractive index at the surface.

Take recombinant Hbl L1 (natural protein): the Kd came to 131 nM.
